Assays:
[1] = target: GST-Xchk1(306-352) S344A (UniProt Q6DE87)
[2] = target: GST-Xchk1(306-352) S344A+T314A (UniProt Q6DE87)
[3] = target: GST-Xchk1(306-352) T314A (UniProt Q6DE87)
[4] = target: GST-Xchk1(306-352), wild type peptide fragment (UniProt Q6DE87)
[5] = target: GST-Xchk1(347-374) S356A (UniProt Q6DE87)
[6] = target: GST-Xchk1(347-374) S365A (UniProt Q6DE87)
[7] = target: GST-Xchk1(347-374) S365A+S356A (UniProt Q6DE87)
[8] = target: GST-Xchk1(347-374), wildtype peptide fragment (UniProt Q6DE87)
Chain of GST-Xchk1(347-374), wildtype peptide fragment (Q6DE87 347-374): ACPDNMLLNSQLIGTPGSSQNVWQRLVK

[9] = target: GST-Xchk1-N135A (kinase inactive Xchk1 mutant, bacterially expressed) (UniProt Q6DE87)
Chain of GST-Xchk1-N135A (kinase inactive Xchk1 mutant, bacterially expressed) (Q6DE87 whole entry N135A, looked up): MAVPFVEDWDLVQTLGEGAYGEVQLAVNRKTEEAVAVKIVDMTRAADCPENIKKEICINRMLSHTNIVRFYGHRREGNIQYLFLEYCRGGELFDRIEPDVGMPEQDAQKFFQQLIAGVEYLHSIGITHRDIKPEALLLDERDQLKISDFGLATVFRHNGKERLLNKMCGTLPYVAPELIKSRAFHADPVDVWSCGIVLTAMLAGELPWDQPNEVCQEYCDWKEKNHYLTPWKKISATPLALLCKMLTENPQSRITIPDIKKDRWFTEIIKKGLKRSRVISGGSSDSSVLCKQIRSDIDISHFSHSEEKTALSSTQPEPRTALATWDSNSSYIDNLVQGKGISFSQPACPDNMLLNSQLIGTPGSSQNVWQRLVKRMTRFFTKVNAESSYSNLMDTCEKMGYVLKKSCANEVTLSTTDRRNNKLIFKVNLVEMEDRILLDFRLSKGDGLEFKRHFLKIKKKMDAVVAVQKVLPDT

[10] = target: GST-Xchk1-N135A-4AQ (bacterially expressed) (UniProt Q6DE87)
Chain of GST-Xchk1-N135A-4AQ (bacterially expressed) (Q6DE87 whole entry N135A, looked up): as above

[11] = tested on: PHAS-I (model substrate protein)

Chain of Xenopus laevis ATR (Xatr), endogenous protein in Xenopus egg extracts (chain, as listed by the source): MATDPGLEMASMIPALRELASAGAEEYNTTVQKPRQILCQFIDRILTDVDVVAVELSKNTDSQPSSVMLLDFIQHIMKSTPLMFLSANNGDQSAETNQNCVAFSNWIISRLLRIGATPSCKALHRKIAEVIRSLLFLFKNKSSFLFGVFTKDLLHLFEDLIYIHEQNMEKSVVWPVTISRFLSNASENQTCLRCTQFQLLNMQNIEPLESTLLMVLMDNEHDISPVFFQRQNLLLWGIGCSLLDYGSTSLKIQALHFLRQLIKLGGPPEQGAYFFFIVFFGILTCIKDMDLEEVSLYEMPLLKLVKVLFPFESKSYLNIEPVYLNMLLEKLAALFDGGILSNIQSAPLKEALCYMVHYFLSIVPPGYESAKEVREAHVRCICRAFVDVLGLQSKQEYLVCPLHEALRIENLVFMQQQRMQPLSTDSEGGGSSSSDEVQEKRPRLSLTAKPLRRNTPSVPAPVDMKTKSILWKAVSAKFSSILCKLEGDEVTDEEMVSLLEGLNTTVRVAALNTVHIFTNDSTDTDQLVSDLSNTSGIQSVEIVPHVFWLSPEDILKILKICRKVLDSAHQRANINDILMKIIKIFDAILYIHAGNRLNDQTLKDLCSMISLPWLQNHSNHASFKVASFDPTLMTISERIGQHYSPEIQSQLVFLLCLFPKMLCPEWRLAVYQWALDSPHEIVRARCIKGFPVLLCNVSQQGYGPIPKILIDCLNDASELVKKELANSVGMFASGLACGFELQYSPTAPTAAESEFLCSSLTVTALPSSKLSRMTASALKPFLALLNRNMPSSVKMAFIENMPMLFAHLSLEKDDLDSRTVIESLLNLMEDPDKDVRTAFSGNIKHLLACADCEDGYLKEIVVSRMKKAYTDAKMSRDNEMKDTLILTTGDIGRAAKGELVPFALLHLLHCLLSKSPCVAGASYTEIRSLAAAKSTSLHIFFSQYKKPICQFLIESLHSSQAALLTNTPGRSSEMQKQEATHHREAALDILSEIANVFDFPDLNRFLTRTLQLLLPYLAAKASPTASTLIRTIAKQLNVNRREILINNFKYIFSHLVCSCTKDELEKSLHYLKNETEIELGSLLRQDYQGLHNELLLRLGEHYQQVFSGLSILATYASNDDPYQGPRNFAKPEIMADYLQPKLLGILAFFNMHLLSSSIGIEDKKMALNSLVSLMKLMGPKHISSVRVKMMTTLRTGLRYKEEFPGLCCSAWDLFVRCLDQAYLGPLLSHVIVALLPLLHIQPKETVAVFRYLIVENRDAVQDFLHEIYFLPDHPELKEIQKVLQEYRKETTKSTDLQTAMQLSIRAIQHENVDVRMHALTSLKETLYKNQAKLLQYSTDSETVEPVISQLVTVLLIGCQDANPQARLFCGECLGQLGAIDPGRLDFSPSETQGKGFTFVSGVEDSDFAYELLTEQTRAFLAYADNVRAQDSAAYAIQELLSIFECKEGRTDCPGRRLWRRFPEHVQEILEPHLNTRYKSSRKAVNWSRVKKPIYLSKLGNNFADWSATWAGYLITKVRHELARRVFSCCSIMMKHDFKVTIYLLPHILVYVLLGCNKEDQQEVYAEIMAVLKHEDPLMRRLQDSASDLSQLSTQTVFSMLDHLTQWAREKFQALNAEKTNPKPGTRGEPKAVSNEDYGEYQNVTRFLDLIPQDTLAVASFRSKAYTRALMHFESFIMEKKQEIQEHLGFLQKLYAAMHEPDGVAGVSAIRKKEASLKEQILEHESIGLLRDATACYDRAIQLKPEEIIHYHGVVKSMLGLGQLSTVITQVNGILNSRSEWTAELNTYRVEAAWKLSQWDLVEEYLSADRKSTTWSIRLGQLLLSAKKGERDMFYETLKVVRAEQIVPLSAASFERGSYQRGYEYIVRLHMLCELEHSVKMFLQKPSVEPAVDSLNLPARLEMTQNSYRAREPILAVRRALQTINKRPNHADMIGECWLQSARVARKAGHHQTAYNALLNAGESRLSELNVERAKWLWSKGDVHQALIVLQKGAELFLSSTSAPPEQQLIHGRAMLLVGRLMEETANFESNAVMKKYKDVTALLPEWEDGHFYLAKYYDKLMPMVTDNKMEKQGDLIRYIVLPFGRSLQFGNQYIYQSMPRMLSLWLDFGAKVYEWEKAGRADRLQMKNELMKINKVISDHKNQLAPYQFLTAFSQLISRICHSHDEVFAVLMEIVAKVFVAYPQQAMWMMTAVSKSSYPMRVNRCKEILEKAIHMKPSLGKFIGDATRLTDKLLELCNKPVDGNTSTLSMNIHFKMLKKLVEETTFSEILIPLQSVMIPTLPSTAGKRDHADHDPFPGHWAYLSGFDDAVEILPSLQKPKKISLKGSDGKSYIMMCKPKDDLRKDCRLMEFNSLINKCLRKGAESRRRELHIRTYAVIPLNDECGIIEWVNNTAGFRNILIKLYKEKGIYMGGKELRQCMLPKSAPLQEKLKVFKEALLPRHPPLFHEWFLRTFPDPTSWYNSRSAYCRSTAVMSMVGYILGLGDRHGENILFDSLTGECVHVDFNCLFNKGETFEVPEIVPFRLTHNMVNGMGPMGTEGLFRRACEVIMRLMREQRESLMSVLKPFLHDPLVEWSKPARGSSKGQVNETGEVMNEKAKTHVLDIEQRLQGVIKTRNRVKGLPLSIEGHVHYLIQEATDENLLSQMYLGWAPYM
Chain of GST-Xchk1(347-374) S365A+S356A (Q6DE87 whole entry S356A/S365A, looked up, the tested form may be a part): as the sequence (Q6DE87 whole entry N135A, looked up) above, with A135N, S356A, S365A counted along it
Chain of GST-Xchk1(347-374) S365A (Q6DE87 whole entry S365A, looked up, tested part not stated): as the sequence (Q6DE87 whole entry N135A, looked up) above, with A135N, S365A counted along it
Chain of GST-Xchk1(347-374) S356A (Q6DE87 whole entry S356A, looked up, tested part not stated): as the sequence (Q6DE87 whole entry N135A, looked up) above, with A135N, S356A counted along it
Chain of GST-Xchk1(306-352), wild type peptide fragment (Q6DE87 306-352): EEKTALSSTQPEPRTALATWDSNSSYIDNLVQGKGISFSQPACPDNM
Chain of GST-Xchk1(306-352) S344A+T314A (Q6DE87 whole entry T314A/S344A, looked up, tested part not stated): as the sequence (Q6DE87 whole entry N135A, looked up) above, with A135N, T314A, S344A counted along it
Chain of GST-Xchk1(306-352) S344A (Q6DE87 whole entry S344A, looked up, tested part not stated): as the sequence (Q6DE87 whole entry N135A, looked up) above, with A135N, S344A counted along it
Chain of GST-Xchk1(306-352) T314A (Q6DE87 whole entry T314A, looked up, the tested form may be a part): as the sequence (Q6DE87 whole entry N135A, looked up) above, with A135N, T314A counted along it

Substance	in vitro phosphorylation of Xchk1 peptides [1]	in vitro phosphorylation of Xchk1 peptides [2]	in vitro phosphorylation of Xchk1 peptides [3]	in vitro phosphorylation of Xchk1 peptides [4]	in vitro phosphorylation of Xchk1 peptides [5]	in vitro phosphorylation of Xchk1 peptides [6]	in vitro phosphorylation of Xchk1 peptides [7]	in vitro phosphorylation of Xchk1 peptides [8]	in vitro phosphorylation (32P-ATP, autoradiography) [9]	in vitro phosphorylation (32P-ATP, autoradiography) [10]	phosphorylation of PHAS-I (in vitro kinase assay, autoradiography) [11]
Wildtype human Flag-tagged ATR isolated from 293T cells	human ATR phosphorylated each of the single point mutant Chk1 substrates (S365A, S356A, S344A and T314A); the level of phosphorylation of the single mutant forms of Xchk1 by human ATR is also reduced	human ATR does not phosphorylate the double mutant XChk1 substrates (S365A+S356A or S344A+T314A-as shown in lanes 4 and 12)	human ATR phosphorylated each of the single point mutant Chk1 substrates (S365A, S356A, S344A and T314A); the level of phosphorylation of the single mutant forms of Xchk1 by human ATR is also reduced	Wildtype human ATR phosphorylated the wildtype XChk1 peptides Xchk1 (306-352) and Xchk1(347-374)	human ATR phosphorylated each of the single point mutant Chk1 substrates (S365A, S356A, S344A and T314A); the level of phosphorylation of the single mutant forms of Xchk1 by human ATR is also reduced	human ATR phosphorylated each of the single point mutant Chk1 substrates (S365A, S356A, S344A and T314A); the level of phosphorylation of the single mutant forms of Xchk1 by human ATR is also reduced	human ATR does not phosphorylate the double mutant XChk1 substrates (S365A+S356A or S344A+T314A-as shown in lanes 4 and 12)	Wildtype human ATR phosphorylated the wildtype XChk1 peptides Xchk1 (306-352) and Xchk1(347-374)	–	–	–
Xenopus laevis ATR (Xatr), endogenous protein in Xenopus egg extracts	Xatr phosphorylated Xchk1 when a single SQ or TQ site is mutated although the level of phosphorylation is significantly reduced in comparison to that observed with wildtype peptide	mutation of both sites within each peptide (S365A+S356A or S344A+T314A) abolished phosphorylation by Xatr (lanes 4 and 8)	Xatr phosphorylated Xchk1 when a single SQ or TQ site is mutated although the level of phosphorylation is significantly reduced in comparison to that observed with wildtype peptide	Xatr phosphorylated both of the wildtype peptide fragments (lanes 1 and 5-top panel)	Xatr phosphorylated Xchk1 when a single SQ or TQ site is mutated although the level of phosphorylation is significantly reduced in comparison to that observed with wildtype peptide	Xatr phosphorylated Xchk1 when a single SQ or TQ site is mutated although the level of phosphorylation is significantly reduced in comparison to that observed with wildtype peptide	mutation of both sites within each peptide (S365A+S356A or S344A+T314A) abolished phosphorylation by Xatr (lanes 4 and 8)	Xatr phosphorylated both of the wildtype peptide fragments (lanes 1 and 5-top panel)	Xatr phosphorylates Xchk1 in vitro (compare lane 5 to lane 6)	the resulting mutant (GST-Xchk1-N135A-4AQ) was not phosphorylated by Xatr (lane 4)	these immunoprecipitates phosphorylated a model substrate protein (PHAS-I) in vitro

Reference: patent US20030108916
